From patent US20240239894A1, “THERAPEUTIC BINDING MOLECULES” (MedImmune Limited, priority 2020, published 2024)

B1: E02-GL: germlined ZY0EQD-E02, VH SEQ ID NO: 45, VL SEQ ID NO: 34; antibody intermediate of E02-GL-SG3932 (antibody, V domains shown)
VH: QVQLQQWGAGLLKPSETLSLACTVYGGSFSGYYWNWIRQPPGKGLEWIGEINHSGSTSYNPSLKSRVTISVDTSKNQFSLKLSSVTAADTAVYYCARVLYNWNVDSWGQGTLVTVSS
VL: DIQMTQSPSSLSASVGDRVTITCRASQDIRNDVGWYQQKPGKAPKRLIYAASRLQSGVPSRFSGSGSGTEFTLTISSLQPEDFATYYCLQHNSYPRTFGQGTKVEIK
B2: E02-GL-SG3249: clone E02-GL (Maia heavy chain backbone) conjugated to the PBD cytotoxin SG3249 (conjugate)
heavy: QVQLQQWGAGLLKPSETLSLACTVYGGSFSGYYWNWIRQPPGKGLEWIGEINHSGSTSYNPSLKSRVTISVDTSKNQFSLKLSSVTAADTAVYYCARVLYNWNVDSWGQGTLVTVSSASTKGPSVFPLAPSSKSTSGGTAALGCLVKDYFPEPVTVSWNSGALTSGVHTFPAVLQSSGLYSLSSVVTVPSSSLGTQTYICNVNHKPSNTKVDKRVEPKSCDKTHTCPPCPAPELLGGPSCVFLFPPKPKDTLMISRTPEVTCVVVDVSHEDPEVKFNWYVDGVEVHNAKTKPREEQYNSTYRVVSVLTVLHQDWLNGKEYKCKVSNKALPAPIEKTISKAKGQPREPQVYTLPPSREEMTKNQVSLTCLVKGFYPSDIAVEWESNGQPENNYKTTPPVLDSDGSFFLYSKLTVDKSRWQQGNVFSCSVMHEALHNHYTQKSLSLSPGK
light: DIQMTQSPSSLSASVGDRVTITCRASQDIRNDVGWYQQKPGKAPKRLIYAASRLQSGVPSRFSGSGSGTEFTLTISSLQPEDFATYYCLQHNSYPRTFGQGTKVEIKRTVAAPSVFIFPPSDEQLKSGTASVVCLLNNFYPREAKVQWKVDNALQSGNSQESVTEQDSKDSTYSLSSTLTLSKADYEKHKVYACEVTHQGLSSPVTKSFNRGEC

Legend:
HT29 hB7H4 clone 26 = assay: E02-GL MESF on cell line; assay type: cell-based, human
HEK 293 JI hB7H4 pool = assay: E02-GL MESF on cell line; assay type: cell-based; conditions: has some negative cells in pool
HT29 = assay: E02-GL MESF on cell line; assay type: cell-based, human; conditions: HT29, B7-H4 negative
MX-1 cells = assay: Flow cytometry binding; assay type: cell-based, human; conditions: endogenously-expressed B7-H4
Description: (§1) Flow cytometry was used to measure binding of antibody E02-INT and E02-GL-SG3932 to the human breast cancer cell lines MX-1 and MDA-MB-468, and to engineered HT29 colon cancer cells stably expressing human B7-H4.

[1] = system: HT29-huB7-H4 Clone 4 and HT29-huB7-H4 Clone 26; assay: Flow cytometry binding; assay type: cell-based, human
Description: as §1

MDA-MB-468 cells = assay: Flow cytometry binding; assay type: cell-based, human; conditions: endogenously-expressed B7-H4
Description: as §1

HEK293 JI parental = assay: E02-GL MESF on cell line; assay type: cell-based; conditions: B7-H4 negative
MDA-MB-468 = assay: E02-GL MESF on cell line; assay type: cell-based, human
Description: A number of cancer cell lines were treated with clone E02-GL-SG3249 (e.g. conjugated to a cytotoxin), as outlined in Table 15.

[2] = system: HT29-huB7-H4 Clone 26 cells; assay: Confocal colocalization with LAMP1 and EEA1; assay type: cell-based, human; conditions: 24 hours, 5 μg/mL
Description: Confocal microscopy was used to determine intracellular trafficking of E02-INT by measuring co-localization with the early endosomal marker, Early Endosome Antigen 1 (EEA1) and the lysosomal marker, lysosomal-associated membrane protein 1 (LAMP1).

[3] = system: non-transfected HEK293 cells; assay: In vitro cytotoxicity; assay type: cell-based
Description: The clone E02-GL was conjugated to the cytotoxin SG3249 (providing E02-GL-SG3249), and tested for the ability to target and kill both cynomolgus B7-H4 transfected and non-transfected B7-H4 cells. For convenience, the antibody tested in this example comprised the Maia heavy chain backbone (e.g. having a cysteine insertion providing an additional site to which SG3249 can conjugate, see SEQ ID NO: 48) was used. No loss of efficacy occurs where other heavy chain backbones (e.g. lacking such cysteine insertion, for example see SEQ ID NO: 52) is used. The antibody R347 conjugated to SG3249 was used as a control.

SKBR-3 cells = assay: Caspase 3/7 activity (IncuCyte); assay type: cell-based, human
Description: SKBR-3 cells were treated with E02-GL-SG3249, SG3199 and Olaparib (control) and monitored for caspase 3/7 activity (e.g. apoptosis) by IncuCyte.

[4] = system: HT29 cell line expressing human B7-H4, SKBR3, HCC1569; assay: Cytotoxicity assay versus 1D11 ADC; assay type: cell-based; conditions: six days
Description: Cell lines were detached from tissue culture flasks by accutase (Gibco, Paisley, UK), pelleted by centrifugation, and resuspended in growth media (McCoy's 5A,10% FBS, 400 μg/mL G418 for HT29-hB7H4 clone 44, McCoy's 5A, 10% FBS for SKBR3 and RPMI-1640, 10% FBS for HCC1569). Viable cells were counted by trypan blue exclusion using a haemocytometer. Cell densities were adjusted to 2.7×10^4 cells/mL in growth media. 75 μL/well of the cell suspension (2×10^3 cells) was added to 96-well white walled clear bottom tissue culture treated plates and cultured overnight in a humidified tissue culture incubator at 37° C. in 5% CO2. […]
Cells were cultured in the presence of ADCs or DPBS (mock-treated control cells) for six days. Cell viability was assessed using CellTiter-Glo® assay: 100 μL of CellTiter-Glo® (Promega, Southampton, UK) was added to each well. […] Luminescence was measured using an Envision multilabel plate reader (Perkin Elmer, Seer Green, UK). The potency for test article antibodies (e.g. 1D11-MMAE or E02-GL-MMAE or E02-GL-SG3249) was determined by generating half-maximal inhibitory concentration (IC50) values using a nonlinear regression model [log agonist vs. response—variable slope (three parameters)] in GraphPad Prism, version 7 (GraphPad Software, La Jolla, CA) and presented as percent cell viability relative to Mock-treated control cells — […]

MDA-MB-468 xenograft = assay: Tumour xenograft; assay type: in vivo, mice; conditions: triple negative breast cancer, low B7-H4
Description: (§2) Tumour xenografts were prepared on mice using the following cancer cell lines: • OVCAR4 (Cisplatin refractory ovarian cancer; high B7-H4 expression) • HCC1569 (HER2 positive breast cancer; heterogeneous B7-H4 expression) • MDA-MB-468 (Triple negative breast cancer; low B7-H4 expression)

HCC1569 xenograft = assay: Tumour xenograft; assay type: in vivo, mice; conditions: HER2 positive breast cancer, heterogeneous B7-H4
Description: as §2

OVCAR4 xenograft = assay: Tumour xenograft; assay type: in vivo, mice; conditions: cisplatin refractory ovarian cancer, high B7-H4
Description: as §2

[5] = system: B7-H4 heterogeneous HT29 tumours (1:1 expressing and non-expressing); assay: Bystander killing in vivo
Description: B7-H4 heterogeneous tumours were generated by co-implantation of B7-H4 expressing HT29 cell lines with non-expressing HT29 cells (1:1 ratio). […] This is highly advantageous, as the inventors have found B7-H4 to be heterogeneously expressed within tumours.

Row | Molecule | E02-GL MESF (HT29 hB7H4 clone 26) | E02-GL MESF (HEK 293 JI hB7H4 pool) | E02-GL MESF (HT29) | cellular binding (MX-1 cells) | cellular binding [1] | cellular binding (MDA-MB-468 cells) | E02-GL MESF (HEK293 JI parental) | E02-GL MESF (MDA-MB-468) | intracellular trafficking after internalization [2] | cell killing [3] | caspase 3/7 activity (SKBR-3 cells) | cytotoxicity potency compared with 1D11 conjugated to (A114C-) MMAE [4] | tumour volume versus vehicle (MDA-MB-468 xenograft) | tumour volume versus vehicle (HCC1569 xenograft) | tumour volume versus vehicle (OVCAR4 xenograft) | growth suppression of heterogeneous xenografts [5]
1 | B1 | 429,398 MESF | 2,481,266 MESF | 2,101 MESF | bound | bound similarly | bound | 3,266 MESF | 92,157 MESF | trafficked to the lysosomal compartment | – | – | – | – | – | – | –
2 | B2 | – | – | – | – | – | – | – | – | – | No significant killing | dose dependent increase | superior cytotoxicity potency | significant decrease in tumour volume | significant decrease in tumour volume | significant decrease in tumour volume | pronounced
